{
  "source": "paper PMC9935853",
  "molecular_target": "S. pombe respiratory complex IV (cytochrome c oxidase), affinity purified through a C-terminal twin-strep tag on subunit Cox5 (S. pombe) (UniProt P07657)",
  "sequence (P07657 whole entry, looked up, tested part not stated, one chain of several)": "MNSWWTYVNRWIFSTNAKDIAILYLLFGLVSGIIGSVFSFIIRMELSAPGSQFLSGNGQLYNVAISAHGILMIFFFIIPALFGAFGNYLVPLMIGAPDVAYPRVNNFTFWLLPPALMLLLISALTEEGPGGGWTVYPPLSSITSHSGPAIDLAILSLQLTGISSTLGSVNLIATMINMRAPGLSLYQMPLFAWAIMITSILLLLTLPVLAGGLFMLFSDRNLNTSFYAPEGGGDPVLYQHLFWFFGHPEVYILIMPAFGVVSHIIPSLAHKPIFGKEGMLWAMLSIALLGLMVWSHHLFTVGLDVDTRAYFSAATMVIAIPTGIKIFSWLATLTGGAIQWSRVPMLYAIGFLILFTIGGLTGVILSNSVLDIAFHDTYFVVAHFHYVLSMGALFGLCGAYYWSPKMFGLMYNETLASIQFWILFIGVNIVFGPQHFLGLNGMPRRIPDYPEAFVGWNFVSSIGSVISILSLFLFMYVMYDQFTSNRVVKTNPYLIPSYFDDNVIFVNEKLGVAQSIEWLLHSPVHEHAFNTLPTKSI",
  "experiment": "pull-down + SEC; membranes solubilised in 1% GDN; StrepTactin column through Cox5-2xstrep, then Superose 6 Increase in 25 mM KH2PO4 pH 8.0, 150 mM KCl, 0.01% GDN; peaks analysed by reduced minus oxidized difference spectra",
  "data": [
    {"substance": "S. pombe respiratory complex III (cyt. bc1 complex)", "values": [
      {"measurement": "stoichiometry N", "value": "2 CIII:CIV"}
    ]}
  ]
}
